Earlier results as cited in PMC6051640.

Biological target: retinol binding protein (Homo sapiens) (UniProt P02753)

Kd: 59 nM
Substance: Stra6 (from UniProt Q9BX79)
